# According to patent publication US20130280734A1:
# Target: human GLP-1 receptor (GLP-1R) (human) (UniProt P43220)
# Experiment: cell-based or functional assay
# Conditions: scale: times higher concentration than the active forms of GLP-1
# human GLP-1 receptor (GLP-1R) (human), sequence (P43220 24-463 limits assumed): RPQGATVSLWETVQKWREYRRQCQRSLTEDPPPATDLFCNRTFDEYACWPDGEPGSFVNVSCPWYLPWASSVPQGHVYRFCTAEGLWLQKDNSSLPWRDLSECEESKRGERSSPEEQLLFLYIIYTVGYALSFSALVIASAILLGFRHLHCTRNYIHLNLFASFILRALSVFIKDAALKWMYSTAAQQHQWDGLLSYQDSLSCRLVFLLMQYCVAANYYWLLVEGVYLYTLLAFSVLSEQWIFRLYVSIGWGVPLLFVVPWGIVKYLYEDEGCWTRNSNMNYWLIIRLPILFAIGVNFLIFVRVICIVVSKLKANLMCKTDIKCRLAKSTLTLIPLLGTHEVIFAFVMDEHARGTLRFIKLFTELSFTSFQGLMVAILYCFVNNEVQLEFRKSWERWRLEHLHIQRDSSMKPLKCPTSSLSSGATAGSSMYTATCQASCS
row,"reactivity of the kit (aequorin luminescence), concentration relative to the active forms of GLP-1",Substance
1,> 1e+06,GIP (gastric inhibitory peptide or glucose-dependent insulinotropic polypeptide) (from UniProt P09681 52-93)
2,> 1e+06,GLP-1 (9-36 amide) (from UniProt P01275 21-180) (peptide)
3,> 1e+06,GLP-2 (from UniProt P01275 146-178) (peptide)
4,10000,precursor GLP-1 (1-37) (from UniProt P01275 21-180) (peptide)
